± gives the standard deviation of the averaged measurements.
Legend:
[1] = test system: VchCAST RNA-guided transposition machinery (E. coli BL21(DE3) host, lacZ target); assay: relative integration efficiency (T-RL orientation) vs wild-type transposon end (log2 (normalized fold change)); transposon end mutated: right end (5 bp flank + 75 bp right end); higher = more efficient transposition
Outline: (§1)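 In E. coli BL21(DE3), a T7-driven effector plasmid was paired with a pUC57 mini-transposon donor containing 1549 left-end or 1849 right-end barcoded transposon variants. Cells grew on plates with 0.1 mM IPTG at 37°C for 18 h. Relative integration efficiency was derived from Illumina reads of genomic integration junctions against input plasmids, as a log-transformed output/input barcode fold change normalised to reference barcodes.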

[2] = test system: VchCAST RNA-guided transposition machinery (E. coli BL21(DE3) host, lacZ target); assay: relative integration efficiency (T-LR orientation) vs wild-type transposon end (log2 (normalized fold change)); transposon end mutated: right end (5 bp flank + 75 bp right end); higher = more efficient transposition
Outline: as §1

ACATTTGTTGATACAACCATAAAATGGTAATTACACCCCTACATTGATAATTATCACACCCAATTTAACTATAACGCTCTGATCATAGTCAGACCAACATTGCTACGACCCGTATTCGCACCGACAC
relative integration efficiency (log2) [1]: -3.67 ± 0.066 | relative integration efficiency (log2) [2]: -0.856 ± 0.38

ACATTTGTTGATACAACCATAAAATGGTAATTCCACCCATAAATTGATAATTATCACACCCAATTTAACTATAACGCTCTGATCATAGTCAGACCAACATTGCTACGACCCGTATTCGCACCGACAC
relative integration efficiency (log2) [1]: -1.45 ± 0.25 | relative integration efficiency (log2) [2]: 2.06 ± 0.044

ACATTTGTTGATACAACCATAAAATGGTAATTCCACCCATACATTGATAATTATCACACCCAATTTAACTATAACGCTCTGATCATAGTCAGACCAACATTGCTACGACCCGTATTCGCACCGACAC
relative integration efficiency (log2) [1]: -3.15 ± 0.33 | relative integration efficiency (log2) [2]: 0.391 ± 0.15

ACATTTGTTGATACAACCATAAAATGGTAATTCCACCCCTAAATTGATAATTATCACACCCAATTTAACTATAACGCTCTGATCATAGTCAGACCAACATTGCTACGACCCGTATTCGCACCGACAC
relative integration efficiency (log2) [1]: -3.6 ± 0.27 | relative integration efficiency (log2) [2]: -0.518 ± 0.25

ACATTTGTTGATACAACCATAAAATGGTAATTCCACCCCTACATTGATAATTATCACACCCAATTTAACTATAACGCTCTGATCATAGTCAGACCAACATTGCTACGACCCGTATTCGCACCGACAC
relative integration efficiency (log2) [1]: -3.92 ± 0.41 | relative integration efficiency (log2) [2]: -0.604 ± 0.45

ACATTTGTTGATACAACCATAAAATGTAAATTACACCCATAAATTGATAATTATCACACCCATAAATTGATATTGCCTCTGATCATAGTCAGACCAACATTGCTACGACCCGTATTCGCACCGACAC
relative integration efficiency (log2) [1]: -0.732 ± 0.084 | relative integration efficiency (log2) [2]: -0.454 ± 0.18

ACATTTGTTGATACAACCATAAAATGTATTAATCACCCATAAATTGTATTAATTCACACCCATAAATTGTATAACGCTCTGATCATAGTCAGACCAACATTGCTACGACCCGTATTCGCACCGACAC
relative integration efficiency (log2) [1]: -4.24 ± 0.14 | relative integration efficiency (log2) [2]: -2.39 ± 0.35

ACATTTGTTGATACAACCATAAAATGTATTTTACACCCATAAATTGATAATTATCACACCCATAAATTGATATTGCCTCTGATCATAGTCAGACCAACATTGCTACGACCCGTATTCGCACCGACAC
relative integration efficiency (log2) [1]: -0.938 ± 0.035 | relative integration efficiency (log2) [2]: -0.626 ± 0.31

ACATTTGTTGATACAACCATAAAATGTTAATTACACCCATAAATTGTTAATTATCACACCCATAAATTGTTATTGCCTCTGATCATAGTCAGACCAACATTGCTACGACCCGTATTCGCACCGACAC
relative integration efficiency (log2) [1]: -2.33 ± 0.29 | relative integration efficiency (log2) [2]: -0.437 ± 0.34

ACATTTGTTGATACAACCATAAAATTATAATTACACCCATAAATTTATAATTATCACACCCATAAATTTATATTGCCTCTGATCATAGTCAGACCAACATTGCTACGACCCGTATTCGCACCGACAC
relative integration efficiency (log2) [1]: -1.23 ± 0.3 | relative integration efficiency (log2) [2]: 0.398 ± 0.67

ACATTTGTTGATACAACCATAAAATTATTATTACACCCATTAATTGATAATTATCACACCCAATTTAACTATAACGCTCTGATCATAGTCAGACCAACATTGCTACGACCCGTATTCGCACCGACAC
relative integration efficiency (log2) [1]: -2.35 ± 0.18 | relative integration efficiency (log2) [2]: 1.15 ± 0.09

ACATTTGTTGATACAACCATAAAATTCGCATTACACCCATAAATTGATAATTATCACACCCATAAATTGATATTGCCTCTGATCATAGTCAGACCAACATTGCTACGACCCGTATTCGCACCGACAC
relative integration efficiency (log2) [1]: -2.95 ± 0.25 | relative integration efficiency (log2) [2]: -2.45 ± 0.2

ACATTTGTTGATACAACCATAAAATTCGCCGGCACAAACGCCCGGTCGCCGGCGACACAAACGCCCGGTCGCGGTAAGAGGATCATAGTCAGACCAACATTGCTACGACCCGTATTCGCACCGACAC
relative integration efficiency (log2) [1]: -4.45 ± 0.73 | relative integration efficiency (log2) [2]: -0.949 ± 0.46

ACATTTGTTGATACAACCATAAAATTCTAATTACACCCATAAATTGATAATTATCACACCCATAAATTGATATTGCCTCTGATCATAGTCAGACCAACATTGCTACGACCCGTATTCGCACCGACAC
relative integration efficiency (log2) [1]: -1.85 ± 0.18 | relative integration efficiency (log2) [2]: -1.38 ± 0.16

ACATTTGTTGATACAACCATAAACGGATAATTACACCCATAAATTGATAATTATCACACCCATAAATTGATATTGCCTCTGATCATAGTCAGACCAACATTGCTACGACCCGTATTCGCACCGACAC
relative integration efficiency (log2) [1]: -0.642 ± 0.01 | relative integration efficiency (log2) [2]: -0.722 ± 0.72

ACATTTGTTGATACAACCATAAACGTCTAATTACACCCATAAATTGATAATTATCACACCCATAAATTGATATTGCCTCTGATCATAGTCAGACCAACATTGCTACGACCCGTATTCGCACCGACAC
relative integration efficiency (log2) [1]: -2.72 ± 0.083 | relative integration efficiency (log2) [2]: -2.25 ± 0.11

ACATTTGTTGATACAACCATAAACTGATAATTACACCCATAAAGTGATAATTATCACACCCATAAAGTGATATTGCCTCTGATCATAGTCAGACCAACATTGCTACGACCCGTATTCGCACCGACAC
relative integration efficiency (log2) [1]: 0.368 ± 0.095 | relative integration efficiency (log2) [2]: 0.264 ± 0.12

ACATTTGTTGATACAACCATAAAGTGATATTTACAACCATAAAATGATAATTATCACAACCATAAAATGATAATTACTCTGATCATAGTCAGACCAACATTGCTACGACCCGTATTCGCACCGACAC
relative integration efficiency (log2) [1]: 0.174 ± 0.1 | relative integration efficiency (log2) [2]: 0.0497 ± 0.074

ACATTTGTTGATACAACCATAAAGTGATATTTACAACCATAAAATGATAATTATCACAACCATAAAGTGATATTTACTCTGATCATAGTCAGACCAACATTGCTACGACCCGTATTCGCACCGACAC
relative integration efficiency (log2) [1]: 0.0289 ± 0.14 | relative integration efficiency (log2) [2]: 0.103 ± 0.36

ACATTTGTTGATACAACCATAAAGTGATATTTACAACCATAAAATGATAATTATCACAACCATAAGTTGATATTTTCTCTGATCATAGTCAGACCAACATTGCTACGACCCGTATTCGCACCGACAC
relative integration efficiency (log2) [1]: 0.113 ± 0.034 | relative integration efficiency (log2) [2]: -0.0726 ± 0.055

ACATTTGTTGATACAACCATAAAGTGATATTTACAACCATAAAATGATAATTATCACAACCATATATTGATATCTCCTCTGATCATAGTCAGACCAACATTGCTACGACCCGTATTCGCACCGACAC
relative integration efficiency (log2) [1]: -0.261 ± 0.13 | relative integration efficiency (log2) [2]: -0.163 ± 0.73

ACATTTGTTGATACAACCATAAAGTGATATTTACAACCATAAAATGATAATTATCACACCCATAAATTGATAATTACTCTGATCATAGTCAGACCAACATTGCTACGACCCGTATTCGCACCGACAC
relative integration efficiency (log2) [1]: 0.346 ± 0.076 | relative integration efficiency (log2) [2]: 0.307 ± 0.068

ACATTTGTTGATACAACCATAAAGTGATATTTACAACCATAAAATGATAATTATCACACCCATAAATTGATATTGCCTCTGATCATAGTCAGACCAACATTGCTACGACCCGTATTCGCACCGACAC
relative integration efficiency (log2) [1]: -0.00564 ± 0.04 | relative integration efficiency (log2) [2]: -0.097 ± 0.68

ACATTTGTTGATACAACCATAAAGTGATATTTACAACCATAAAATGATAATTATCAGTGGGTATTTAACTATAACGCTCTGATCATAGTCAGACCAACATTGCTACGACCCGTATTCGCACCGACAC
relative integration efficiency (log2) [1]: -0.714 ± 0.27 | relative integration efficiency (log2) [2]: 2.86 ± 0.12

ACATTTGTTGATACAACCATAAAGTGATATTTACAACCATAAAGTGATATTTATCACAACCATAAAATGATAATTACTCTGATCATAGTCAGACCAACATTGCTACGACCCGTATTCGCACCGACAC
relative integration efficiency (log2) [1]: 0.0579 ± 0.16 | relative integration efficiency (log2) [2]: 0.11 ± 0.34

ACATTTGTTGATACAACCATAAAGTGATATTTACAACCATAAAGTGATATTTATCACAACCATAAAGTGATATTTACTCTGATCATAGTCAGACCAACATTGCTACGACCCGTATTCGCACCGACAC
relative integration efficiency (log2) [1]: 0.0208 ± 0.11 | relative integration efficiency (log2) [2]: 0.061 ± 0.087

ACATTTGTTGATACAACCATAAAGTGATATTTACAACCATAAAGTGATATTTATCACAACCATAAGTTGATATTTTCTCTGATCATAGTCAGACCAACATTGCTACGACCCGTATTCGCACCGACAC
relative integration efficiency (log2) [1]: 0.0887 ± 0.14 | relative integration efficiency (log2) [2]: -0.279 ± 0.16

From the supplement of paper PMC10201428
